Source: the supplement of paper PMC9732359
± gives the uncertainty stated by the source.

Assay: protein stability index of a GFP-peptide fusion (yeast GPS) (PSI 1-4); higher = more stable; sorted into four equal gates, so the index is relative within each strain
Summary of the method: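 Sequencing reads from sorted gates were used to score each peptide. The library consisted of tiled 17-residue yeast protein peptides fused downstream of GFP on a Cherry-expressing plasmid, pooled and carried in yeast. Mid-log cultures in leucine-free medium were split into four equal gates by GFP/Cherry ratio, and each gate's plasmids were PCR-amplified and Illumina-sequenced. The protein stability index adds up, over all gates, the read frequency multiplied by the gate number.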

Sequence	protein stability index (doa10∆)	protein stability index (pdr5∆)	protein stability index (san1∆)	protein stability index (ubr1∆)
ELPLVITMPATNGKPDM [ARP7]	2.9 ± 0.088	3.04 ± 0.074	2.9 ± 0.065	2.99 ± 0.059
ETELFEPGVLNTGDGSI [ECM29]	3.25 ± 0.15	3.2 ± 0.11	2.92 ± 0.12	3.07 ± 0.11
SKLSQEFLYPHLNFPNV [SNF12]	2.88 ± 0.08	2.96 ± 0.088	2.82 ± 0.069	3.02 ± 0.065
WGAETDELSMIMEHFSQ [RPS12]	2.93 ± 0.11	3.12 ± 0.17	3.44 ± 0.071	3.29 ± 0.12
RNVTIQLENADTGTLDT [RPN2]	3.11 ± 0.095	3.2 ± 0.082	3.13 ± 0.069	3.2 ± 0.093
HHAIEEAESLLQFHVAT [RPO21]	2.67 ± 0.094	2.89 ± 0.13	2.64 ± 0.11	2.94 ± 0.087
LTKFRQKLMQLVVLTDV [RGR1]	1.26 ± 0.097	1.16 ± 0.074	1.24 ± 0.18	1.13 ± 0.05
SEISDGKLKRCSRCGSV [SIN4]	3.33 ± 0.17	3.4 ± 0.14	3.36 ± 0.11	3.59 ± 0.11
SVVHPGEMVGVLAAQSI [RPO21]	1.29 ± 0.13	1.81 ± 0.089		1.26 ± 0.06
EAESQLRAAQQQWGNDF [FAS2]	3.12 ± 0.072	3.35 ± 0.063	3.07 ± 0.072	3.23 ± 0.044
SAESWGTGRAVARIPRV [RPL4A]	3.06 ± 0.19	3.51 ± 0.28	2.65 ± 0.21	2.75 ± 0.27
KELTRIPGEEVEETEVP [MED4]	3.21 ± 0.16	3.23 ± 0.21	3.02 ± 0.13	
NTQDLLLLLSLFKKITN [YML103C/NUP188]	1.26 ± 0.038	1.3 ± 0.033	1.58 ± 0.068	1.55 ± 0.036
PQFNSPYDSNNSNTNLN [SWI1]	2.97 ± 0.054	3.03 ± 0.047	2.76 ± 0.052	2.9 ± 0.043
LKEQSEQLKEQMEDMEE [SMC4]	3.21 ± 0.079	2.92 ± 0.13	3.3 ± 0.046	3.14 ± 0.1
ILRNGIDYLQRNDKTLE [POP1]	3.19 ± 0.058	3.01 ± 0.056	2.95 ± 0.054	2.88 ± 0.051
RNFKKANLVNKESDLLE [BRN1]	1.7 ± 0.099	1.58 ± 0.051	1.64 ± 0.11	1.43 ± 0.053
QTMQLIKNVQDLLILTR [SRB6]	1.51 ± 0.087	1.8 ± 0.091		2.09 ± 0.086
ERVTALKNCKISNINIP [SMC1]	3.25 ± 0.1	3.25 ± 0.12	3.1 ± 0.066	3.41 ± 0.11
QRETSGMIVISMENYHL [SRB8]	2.16 ± 0.04	1.99 ± 0.04	2.09 ± 0.042	2.35 ± 0.033
VRLPTKVLKISTRKTPN [RPS20]	1.83 ± 0.087	2.22 ± 0.089	1.7 ± 0.15	2.42 ± 0.084
LLENPNCFFDVIVPQIV [DIS3]	3.23 ± 0.13	3.12 ± 0.12	2.99 ± 0.065	2.36 ± 0.095
QPPTNVQPTIGQLPQLP [SNF5]	3.14 ± 0.055	3.12 ± 0.063	3.09 ± 0.054	3.15 ± 0.043
LVSTLTTGISSTGAADG [SMC2]	2.34 ± 0.097	2.65 ± 0.088	2.93 ± 0.092	2.69 ± 0.059
LEQKIHEVEEILNELQP [SMC1]	3.04 ± 0.15	2.73 ± 0.22	2.99 ± 0.17	3.14 ± 0.2
RAINKVLCTRLRLSNFF [SIR2]	1.72 ± 0.059	1.3 ± 0.059	1.18 ± 0.12	1.08 ± 0.034

Sequence	protein stability index (doa10∆)	protein stability index (pdr5∆)	protein stability index (san1∆)	protein stability index (ubr1∆)
GRYLLTPPDDLHPYVPS [SRB8]	2.36 ± 0.057	2.41 ± 0.056	2.55 ± 0.061	2.66 ± 0.039
HLEEYGYLIQVLLTFLQ [YCS4]	1.59 ± 0.078	1.35 ± 0.09	1.21 ± 0.17	1.13 ± 0.097
AIQFVKENELLFGEKSI [YCS4]	2.19 ± 0.098	2.09 ± 0.064	2.58 ± 0.16	1.92 ± 0.069
DLPDTEGLELLGWIHTQ [PRP8]	2.75 ± 0.093	2.79 ± 0.085	3.22 ± 0.051	3.27 ± 0.045
SSDALSKEKANFLETIA [SIR4]	1.49 ± 0.057	1.68 ± 0.046	1.38 ± 0.091	1.52 ± 0.048
YWYEQDSAKEWPQSKNC [RPB3]	3.4 ± 0.12	3.3 ± 0.13	2.98 ± 0.13	3.43 ± 0.22
TLKPTFSFTEPAQKDSS [YOR098C/NUP1]	2.78 ± 0.059	3.05 ± 0.067	2.99 ± 0.065	2.53 ± 0.037
PLKIHRTPYLTSLKKIK [SWI1]	1.81 ± 0.054	1.82 ± 0.043	1.75 ± 0.07	1.79 ± 0.039
AHLYMLEPSGSYWGYKG [PRE10]	1.66 ± 0.069	1.7 ± 0.13	2.06 ± 0.21	1.84 ± 0.082
EPKQKANAVQNNNGNSA [SRP21]	3.07 ± 0.083	3.24 ± 0.07	2.85 ± 0.19	3.24 ± 0.12
PDVKSLVQLSTMETKTL [SIR4]	2.92 ± 0.071	2.83 ± 0.073	2.81 ± 0.052	2.98 ± 0.063
DLSLNIHPIPSVTVSQG [YMR129W/POM152]	1.98 ± 0.055	2.43 ± 0.057	1.98 ± 0.074	2.17 ± 0.039
SYELRNTTTYKSRPDRP [SNF5]	3.14 ± 0.06	3.3 ± 0.071	3.1 ± 0.087	3.19 ± 0.067
VNQEFIFEAISLSDELN [YJL039C/NUP192]	2.71 ± 0.071	2.65 ± 0.067	2.63 ± 0.051	2.75 ± 0.058
RNVNWIERLTKRQFNNS [ITC1]	3.05 ± 0.12	3.36 ± 0.15	3.05 ± 0.13	3.41 ± 0.12
DGDASKPAFSFGAKSDE [YJL041W/NSP1]	3.32 ± 0.064	3.26 ± 0.053	3.15 ± 0.037	3.43 ± 0.044
GIDPTRIYTNSFIDIME [RPO21]	2.64 ± 0.048	2.5 ± 0.045	2.77 ± 0.048	2.53 ± 0.034
EFISIYSNSHQMAVHIA [RET1]	3.25 ± 0.11	3.45 ± 0.19	3.04 ± 0.11	3.11 ± 0.087
NLKYLDNSNVMTVKLES [RGR1]	2.23 ± 0.18	1.87 ± 0.11	2.04 ± 0.19	2.66 ± 0.12
GEVMKELSEEKYIVKAS [RPT4]	3.25 ± 0.061	3.38 ± 0.072	3.41 ± 0.043	3.3 ± 0.042
KYRKRQLVTREAQIKDW [FAS2]	2.81 ± 0.27	2.86 ± 0.15	2.93 ± 0.24	3.22 ± 0.11
ICDPVHKHREARGLTAT [RPL15A]	3.49 ± 0.12	2.81 ± 0.14	2.93 ± 0.13	3.26 ± 0.099
KDEPVQNDILQESFINT [FAS2]	2.94 ± 0.089	3.14 ± 0.12	3.02 ± 0.052	3.21 ± 0.082
GKMIELISGKAGVLNGT [RET1]	2.62 ± 0.079	2.98 ± 0.087	2.52 ± 0.24	2.6 ± 0.11
VGFWKDDGDDEDLLECL [MTR3]	2.67 ± 0.15	3.42 ± 0.19	3.5 ± 0.22	
